Literature values, collected in paper PMC9222382.

Biological target: IL-10Rα (Homo sapiens) (UniProt Q13651)
Sequence of UniProt Q13651 (Q13651 22-235): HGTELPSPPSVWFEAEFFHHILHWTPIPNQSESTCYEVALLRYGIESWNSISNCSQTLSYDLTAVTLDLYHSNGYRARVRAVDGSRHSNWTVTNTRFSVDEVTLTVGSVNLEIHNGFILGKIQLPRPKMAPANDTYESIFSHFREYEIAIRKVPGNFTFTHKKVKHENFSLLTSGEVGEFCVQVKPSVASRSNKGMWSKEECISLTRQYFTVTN

Kd: 1 nM
Substance: IL-10 (from UniProt P22301)
